According to patent US20120014998A1:

Target: GroEL (E. coli Cpn60) (E. coli) (UniProt P0A6F5)
Assay: cell-based or functional assay

Chain of GroEL (E. coli Cpn60) (E. coli) (P0A6F5 2-548 limits assumed): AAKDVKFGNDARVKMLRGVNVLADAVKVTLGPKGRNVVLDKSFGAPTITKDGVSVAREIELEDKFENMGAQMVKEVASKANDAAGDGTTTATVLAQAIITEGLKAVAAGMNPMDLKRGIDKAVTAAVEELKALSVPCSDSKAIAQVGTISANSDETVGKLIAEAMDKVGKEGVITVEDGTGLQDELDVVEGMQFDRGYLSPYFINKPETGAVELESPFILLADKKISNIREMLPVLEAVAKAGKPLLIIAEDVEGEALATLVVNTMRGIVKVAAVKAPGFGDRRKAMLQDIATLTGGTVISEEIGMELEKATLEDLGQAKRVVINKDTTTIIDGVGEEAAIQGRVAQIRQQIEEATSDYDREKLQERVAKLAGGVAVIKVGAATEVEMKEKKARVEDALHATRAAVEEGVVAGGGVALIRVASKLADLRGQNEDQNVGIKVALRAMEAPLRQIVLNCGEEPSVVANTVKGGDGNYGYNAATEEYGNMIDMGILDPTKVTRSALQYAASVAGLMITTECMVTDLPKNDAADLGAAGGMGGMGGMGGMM
Chain of X-Cpn10 (i.e. non-acetylated) (P61604 2-102 limits assumed): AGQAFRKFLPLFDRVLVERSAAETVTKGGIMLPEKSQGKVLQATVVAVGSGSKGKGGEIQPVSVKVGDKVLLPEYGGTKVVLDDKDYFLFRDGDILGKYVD
Chain of Gly-Cpn10 (P61604 other isoform, or with tags, fused parts or gaps limits assumed): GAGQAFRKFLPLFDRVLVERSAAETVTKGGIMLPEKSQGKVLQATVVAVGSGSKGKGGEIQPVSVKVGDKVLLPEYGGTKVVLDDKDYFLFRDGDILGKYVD
Chain of Ala-Cpn10-cHis (P61604 other isoform, or with tags, fused parts or gaps limits assumed): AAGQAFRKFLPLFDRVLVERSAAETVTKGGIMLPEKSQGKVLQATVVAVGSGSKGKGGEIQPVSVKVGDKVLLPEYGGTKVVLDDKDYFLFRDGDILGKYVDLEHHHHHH
Chain of Ala-Cpn10 (Wild type Cpn10) (P61604 other isoform, or with tags, fused parts or gaps limits assumed): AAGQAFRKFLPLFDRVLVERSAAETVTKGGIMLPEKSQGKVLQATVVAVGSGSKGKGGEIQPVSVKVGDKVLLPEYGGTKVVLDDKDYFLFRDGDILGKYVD

Substance: Cpn10-NtermES (from UniProt P61604 11-102)
- Refolding activity (% of Ala-Cpn10) (% of Ala-Cpn10): 12

Substance: Gly-Cpn10 (from UniProt P61604 2-102)
- Refolding activity (% of Ala-Cpn10) (% of Ala-Cpn10): 107

Substance: Ala-Cpn10-cHis (from UniProt P61604 2-102)
- Refolding activity (% of Ala-Cpn10) (% of Ala-Cpn10): 40

Substance: Ala-Cpn10 (Wild type Cpn10) (from UniProt P61604 2-102)
- Refolding activity (% of Ala-Cpn10) (% of Ala-Cpn10): 100

Substance: X-Cpn10 (i.e. non-acetylated) (from UniProt P61604 2-102)
- Refolding activity (% of Ala-Cpn10) (% of Ala-Cpn10): 105
